Test results taken from patent US20030050434A1.

Molecular target: polyclonal rabbit antiserum raised against synthetic rat preptin conjugated to ovalbumin
Assay: competitive radioimmunoassay, [125I]preptin tracer, antiserum 1:10,000, PEG-assisted second antibody separation

B1: synthetic rat preptin (peptide)
peptide: DVSTSQAVLPDDFPRYPVGKFFKFDTWRQSAGRL
B1 gave an EC20 of 0.344 nM, an EC80 of 0.039 nM and a minimum detectable concentration of 11.2 pM.
